Experimental data taken from the supplement of paper PMC9170038.

Tested on: MS2 coat protein
Assay: apparent KD of MS2 coat protein; designed switch direction (-1 OFF switch, 1 ON switch): -1; higher = weaker reporter binding
Outline: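 An oligonucleotide input, 200 uM small-molecule ligand, or no input was present during titration of SNAP-549-labelled MS2 coat protein, which was doubled from 0.7 or 1.5 nM to 3 µM. Designed RNA switches had been transcribed on Illumina chips by stalled E. coli RNA polymerase. Apparent KD per design is the median over clusters of curves fitted to normalised cluster fluorescence.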

[1] = input ligand: microRNA oligo, concentration not stated
[2] = Eterna round: R95, input ligand: microRNA oligo, concentration not stated
[3] = Eterna round: R95, input ligand: FMN 200 uM
[4] = Eterna round: R95, input ligand: none

| Sequence | apparent KD of MS2 coat protein (input ligand: FMN 200 uM) | apparent KD of MS2 coat protein [1] | apparent KD of MS2 coat protein (input ligand: none) | apparent KD of MS2 coat protein [2] | apparent KD of MS2 coat protein [3] | apparent KD of MS2 coat protein [4] |
| --- | --- | --- | --- | --- | --- | --- |
| AAGAUGCGGAUAGGAUAUGGAAAGAAAAGAAAAUUAGAAGGGUUGGUUAAAAUACAUGAGGAUCACCCAUGUGAAUCAUGAGAA [AK ExNG1-2] (Eterna round: R96, puzzle: Exclusion NG 1) | 132 nM | 89.8 nM | 99.9 nM |  |  |  |
| AAGAUGCGGGUAGGAUAUGGAGAGAAAGAAAGACCAGAAGGAUUGGUCAUAUAACAUGAGGAUCACCCAUGUAUAUGUUGCGAA [EX ng 1 5] (Eterna round: R96, puzzle: Exclusion NG 1) | 19.6 nM | 16.2 nM | 21 nM |  |  |  |
| AAGCACAGAGGAUAUACAAUCCUCAGUGGGUCUGGCGAGCCACAUGAGGAUCACCCAUGUAGAAGGCUGGGCUC [Xezaoron] (puzzle: Exclusion 2) |  |  |  | 11 nM |  |  |
| AAGCAGCGAGGAUAUGCUUGCGCGUGUUCUAGUUGAAAUAAACUUGAGGAUCACCCAAGUAGAAGGCGCAACCG [EX2 #44] (Eterna round: R97, puzzle: Exclusion 2) | 437 nM |  | 65.6 nM |  |  |  |
| AAGCCCUGAGGAUAUCCCAACUCGCACAUGAGGAUCACCCAUGUCCUUCUCUGGGUUUCGGGAGAAGGCAGGCCUC [Megrez-8.3] (Eterna round: R97, puzzle: Exclusion 5) | 398 nM |  | 911 nM |  |  |  |
| AAGCGCGUAGGAUAUACAUGAGGAUCACCCAUGUGAGGAAGGAGUUGGAAGUGUGGAAGUAGAAGGACGGAGUG [JR_Exclu3_Sub078] (puzzle: Exclusion 3) |  |  |  | 44.3 nM | 35.4 nM | 41.7 nM |
| AAGCUGAAGUGCCCGUCUUACAUGAGGAUCACCCAUGUUUUGCUGAAGCGAAUACUCGCAUUAGCAAGUGAGGUCCA [Eternabot (Original) Solution 9] (Eterna round: R97, puzzle: Sensor, turn-off variant 1) | 68.2 nM |  | 53.9 nM |  |  |  |
| AAGCUGGUAGGAUAUCGUACACGUAACAUGAGGAUCACCCAUGUGCGCUAUGUUGGAACUCGAGAAGGGCCCAUUC [Eternabot (L2) Solution 3] (Eterna round: R97, puzzle: Exclusion 5) | 19.3 nM |  | 18.5 nM |  |  |  |
| AAGCUGUGAGGAUAUACAUGAGGAUCACCCAUGUUAAGGAAGUCUUGGUUAAUUUGGUGUAGAAGGCGCUUAUU [JR_Ex3_Sub018] (Eterna round: R97, puzzle: Exclusion 3) | 32.6 nM |  | 32.4 nM |  |  |  |
| AAGGAAAAGUGAGGAUAUGGAAAUUUGGUGAUAACAUGAGGAUCACCCAUGUGAAAACAAUAAAAUUAGAAGGUAUAAAGAAAA [AK ExNG2-1.1] (Eterna round: R96, puzzle: Exclusion NG 2) | 120 nM | 66.7 nM | 107 nM |  |  |  |
| AAGGAACAUGAGGAUCACCCAUGUAAGGAUAUGCAAAGAGAGAAAGAAGAAGGAGAAAGCAGAAGGUACAAGGA [JR_Exclu1_Sub072] (puzzle: Exclusion 1) |  |  |  | 36.2 nM | 47.3 nM | 65.8 nM |
| AAGGACAGAGGAUAUACAUAGAUACAGAUUCAUGUAGAACUACAUGAGGAUCACCCAUGUAGAAGGCUGUCCUA [Fiskers Ex 2 - 2] (Eterna round: R96, puzzle: Exclusion 2) | 412 nM | 25.3 nM | 31.7 nM |  |  |  |
| AAGGACAGAGGAUAUACAUAGAUACAGAUUCAUGUAGAACUACAUGAGGAUCACCCAUGUAGAAGGCUGUCCUA [Fiskers Ex 2 - 2] (puzzle: Exclusion 2) |  |  |  | 29.4 nM |  |  |
| AAGGGUAAAGGAUAUACAUGAGGAUCACCCAUGUUGAGGAAGGUUAGAUGAGGAGUAAGUAGAAGGUUAGACGA [JR_Exclu3_Sub089] (puzzle: Exclusion 3) |  |  |  | 52.6 nM | 57.1 nM | 69.6 nM |
| AAGGGUAGGCAGGAUAUCCAGGUCGACACCGCGGGAGAAGGGCUUACAUGAGGAUCACCCAUGUAGGGUGCGAG [EX6 A.2] (Eterna round: R97, puzzle: Exclusion 6) | 253 nM |  | 133 nM |  |  |  |
| AAGGGUGCUUUCAGAACGACAUGAGGAUCACCCAUGUAGACUGAGGAUAUCUACUUCUAAGGACGGGAGAAGGUAGUGUAAUGC [Ex NG3 #67] (Eterna round: R96, puzzle: Exclusion NG 3) | 19.7 nM | 15.9 nM | 21.5 nM |  |  |  |
| AAGGGUGCUUUCGGAACGACAUGAGGAUCACCCAUGUAGACUGAGGAUAUCUACUUCUAAGGACGGGAGAAGGCAGUGUAAUGC [Ex NG3 #69] (Eterna round: R96, puzzle: Exclusion NG 3) | 47.8 nM | 28.3 nM | 42.6 nM |  |  |  |
| AAGGUCAAGAAUGGAAAUUAAAUACAUGAGGAUCACCCAUGUCAGGAUAUCCAGUAGAGACCUAGGGAGAAGGGACAUGAAAAG [Esonanza] (Eterna round: R96, puzzle: Exclusion NG 3) | 16.1 nM | 10.3 nM | 14.7 nM |  |  |  |
| AAGGUGUUAGGAUAUCGGAGUUUGAGGCAGACGGGAAUUUUCGAGAAGGAACAUGAGGAUCACCCAUGUAGUAU [JR_Exclu4_Sub039] (puzzle: Exclusion 4) |  |  |  | 21.6 nM |  |  |
| AAGUACCGUCACGAAAGUGAUGGUACAACAAGCAAAUGUACAUGAGGAUCACCCAUGUCCUCGAUUGCUCGUCUUAU [Sensor 3 - 61] (puzzle: Sensor v3, turn-off variant 2) |  |  |  | 114 nM | 77.2 nM | 93.6 nM |
| AAGUACCGUCACGAAAGUGAUGGUACAACAAGCAUGUAAACAUGAGGAUCACCCAUGUCCUCAAAUGCUCGUCUUAU [Sensor 3 - 62] (puzzle: Sensor v3, turn-off variant 2) |  |  |  | 2020 nM | 732 nM | 776 nM |
| AAGUACCGUCACGAAAGUGAUGGUACAGCAAGCAAAUGUACAUGAGGAUCACCCAUGUCCUCAAUUGCUCGUCUUAU [Sensor 3 - 58] (puzzle: Sensor v3, turn-off variant 2) |  |  |  | 181 nM | 81.7 nM | 87.4 nM |
| AAGUACCGUCACGAUAGUGAUGGUACAACAAGCAGUGAAACAUGAGGAUCACCCAUGUCCUCAGUUGCUCGUCUUAU [Sensor 3 - 79] (puzzle: Sensor v3, turn-off variant 2) |  |  |  | 492 nM | 196 nM | 195 nM |
| AAGUACCGUCACGAUAGUGAUGGUACAACAAGCAUGUAAACAUGAGGAUCACCCAUGUCCUCGAUUGCUCGUCUUAU [Sensor 3 - 67] (puzzle: Sensor v3, turn-off variant 2) |  |  |  | 601 nM | 527 nM | 537 nM |
| AAGUACCGUCACGAUAGUGAUGGUACAACAAGUAAAUGUACAUGAGGAUCACCCAUGUCCUCUUUUGCUCGUCUUAU [Sensor 3 - 91] (puzzle: Sensor v3, turn-off variant 2) |  |  |  | 33 nM | 144 nM | 166 nM |
| AAGUACCGUCACGAUAGUGAUGGUACAACAAGUAAGUGAACAUGAGGAUCACCCAUGUCCUCUUUUGCUCGUCUUAU [Sensor 3 - 90] (puzzle: Sensor v3, turn-off variant 2) |  |  |  | 18.4 nM | 309 nM | 334 nM |
| AAGUACCGUCACGAUAGUGAUGGUACAACAGGCAAAUGUACAUGAGGAUCACCCAUGUCCUCUUUUGCUCGUCUUAU [Sensor 3 - 99] (puzzle: Sensor v3, turn-off variant 2) |  |  |  | 31 nM | 48.9 nM | 54.7 nM |
| AAGUACCGUCACGAUAGUGAUGGUACAACAGGUAGUGAAACAUGAGGAUCACCCAUGUCCUCAAUUGCUCGUCUUAU [Sensor 3 - 84] (puzzle: Sensor v3, turn-off variant 2) |  |  |  | 179 nM | 773 nM | 716 nM |
| AAGUACCGUCACGAUAGUGAUGGUACAACAUGUAGUGAAACAUGAGGAUCACCCAUGUCCUCAAUUGCUCGUCUUAU [Sensor 3 - 83] (puzzle: Sensor v3, turn-off variant 2) |  |  |  | 460 nM | 1400 nM | 1260 nM |
| AAGUAGUGUGUGAGGAUAUUGGUGGAAUGACACAUUAAGAAGGCACAUGAGGAUCACCCAUGUGGGUAAACACG [Brourd's EX4 #22] (Eterna round: R97, puzzle: Brourd's mod of Exclusion 4) | 90 nM |  | 33.1 nM |  |  |  |
